Data published in patent publication US20240400701A1 (LANOVA MEDICINES DEVELOPMENT, published 2024).

T1: human AMHRII (anti-Mullerian hormone receptor type 2) (human, UniProt Q16671 18-573)
T1 sequence (looked up): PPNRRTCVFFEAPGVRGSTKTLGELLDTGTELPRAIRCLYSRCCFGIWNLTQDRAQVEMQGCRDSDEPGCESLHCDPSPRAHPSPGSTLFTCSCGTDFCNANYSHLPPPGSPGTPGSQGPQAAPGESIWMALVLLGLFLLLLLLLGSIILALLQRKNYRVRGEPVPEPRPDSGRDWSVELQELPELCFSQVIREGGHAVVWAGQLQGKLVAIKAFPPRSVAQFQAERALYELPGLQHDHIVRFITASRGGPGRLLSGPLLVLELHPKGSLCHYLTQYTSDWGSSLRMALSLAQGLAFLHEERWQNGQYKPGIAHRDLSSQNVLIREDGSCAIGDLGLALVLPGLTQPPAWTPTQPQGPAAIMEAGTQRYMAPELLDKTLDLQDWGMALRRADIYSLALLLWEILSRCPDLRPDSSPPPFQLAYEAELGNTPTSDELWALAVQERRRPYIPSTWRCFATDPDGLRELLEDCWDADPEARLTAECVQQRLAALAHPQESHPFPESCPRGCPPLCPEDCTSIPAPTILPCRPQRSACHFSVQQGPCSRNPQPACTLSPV


What was measured:
[1] = biological target: T1, human AMHRII (anti-Mullerian hormone …); test: cell-based or functional assay
[2] = biological target: T1, human AMHRII (anti-Mullerian hormone …); test: FACS on Rko cells over-expressing human AMHR2
Experimental: (§1) Similarly, the binding of these antibodies was tested with Rko cells that over-expressed AMHR2. 100 μl of 1×10⁶ cells/ml of cells were incubated with the antibodies in 3-fold serial dilutions starting from 300 nM to 0.002 nM for 30 minutes on ice. After being washed with 200 μl of FACS buffer twice, cells were incubated with secondary antibody for 30 minutes on ice. Cells were washed with 200 μl of FACS buffer twice and analyzed by FACS.

[3] = biological target: T1, human AMHRII (anti-Mullerian hormone …); test: FACS on CHO-K1 cells over-expressing human AMHR2
Experimental: as §1, with “CHO-K1” for “Similarly, the binding of these antibodies was tested with Rko”, “AMHR2 were harvested from flasks.” for “AMHR2.”, “primary chimeric” for “the”, “antibodies (or with positive reference antibody Ref.Ab)” for “antibodies”

[4] = biological target: T1, human AMHRII (anti-Mullerian hormone …); test: FACS on Rko cells over-expressing human AMHR2; remark: listed apart in the source
Experimental: as §1, with “Rko” for “Similarly, the binding of these antibodies was tested with Rko”, “over-expressing AMHR2 were harvested from flasks.” for “that over-expressed AMHR2.”, “primary PTM” for “the”, “0.001” for “0.002”

[5] = biological target: T1, human AMHRII (anti-Mullerian hormone …); test: FACS on CHO-K1 cells over-expressing human AMHR2; remark: listed apart in the source
Experimental: as §1, with “CHO-K1” for “Similarly, the binding of these antibodies was tested with Rko”, “cells” for “cells that”, “AMHR2 were harvested from flasks.” for “AMHR2.”, “the humanized” for “the”, “0.001” for “0.002”

[6] = biological target: T1, human AMHRII (anti-Mullerian hormone …); test: FACS on CHO-K1 cells over-expressing human AMHR2; remark: listed apart in the source
Experimental: as §1, with “CHO-K1” for “Similarly, the binding of these antibodies was tested with Rko”, “cells” for “cells that”, “AMHR2 were harvested from flasks.” for “AMHR2.”, “the humanized” for “the”, “0.001” for “0.002”

[7] = biological target: T1, human AMHRII (anti-Mullerian hormone …); test: FACS on CHO-K1 cells over-expressing human AMHR2; remark: listed apart in the source
Experimental: as §1, with “CHO-K1” for “Similarly, the binding of these antibodies was tested with Rko”, “cells” for “cells that”, “AMHR2 were harvested from flasks.” for “AMHR2.”, “the humanized” for “the”, “0.001” for “0.002”

[8] = biological target: T1, human AMHRII (anti-Mullerian hormone …); test: FACS on CHO-K1 cells over-expressing human AMHR2; remark: listed apart in the source
Experimental: as §1, with “CHO-K1” for “Similarly, the binding of these antibodies was tested with Rko”, “cells” for “cells that”, “AMHR2 were harvested from flasks.” for “AMHR2.”, “the humanized” for “the”, “0.001” for “0.002”

[9] = biological target: T1, human AMHRII (anti-Mullerian hormone …); test: FACS on CHO-K1 cells over-expressing human AMHR2; remark: listed apart in the source
Experimental: as §1, with “CHO-K1” for “Similarly, the binding of these antibodies was tested with Rko”, “cells” for “cells that”, “AMHR2 were harvested from flasks.” for “AMHR2.”, “the humanized” for “the”, “0.001” for “0.002”

[10] = biological target: T1, human AMHRII (anti-Mullerian hormone …); test: FACS on CHO-K1 cells over-expressing human AMHR2; remark: listed apart in the source
Experimental: as §1, with “CHO-K1” for “Similarly, the binding of these antibodies was tested with Rko”, “cells” for “cells that”, “AMHR2 were harvested from flasks.” for “AMHR2.”, “the humanized” for “the”, “0.001” for “0.002”

| ADCC reporter bioassay, EC50 [1] [nM] | ADCC reporter bioassay, Top (MFI) [1] [MFI] | EC50 [2] [nM] | Top (MFI) [2] [MFI] | EC50 [3] [nM] | Top (MFI) [3] [MFI] | EC50 [4] [nM] | Top (MFI) [4] [MFI] | EC50 [5] [nM] | Top (MFI) [5] [MFI] | EC50 [6] [nM] | Top (MFI) [6] [MFI] | EC50 [7] [nM] | Top (MFI) [7] [MFI] | EC50 [8] [nM] | Top (MFI) [8] [MFI] | EC50 [9] [nM] | Top (MFI) [9] [MFI] | EC50 [10] [nM] | Top (MFI) [10] [MFI] | Binder |
| --- | --- | --- | --- | --- | --- | --- | --- | --- | --- | --- | --- | --- | --- | --- | --- | --- | --- | --- | --- | --- |
| 0.35 | 13100 | 0.56 | 8380 | 1.17 | 124000 | 0.627 | 19000 | 1.21 | 54900 | 1.21 | 54900 | – | – | – | – | – | – | – | – | xi94C4C3 hIgG1 (antibody, V domains shown, Murine variable domains in human chimeric format, human IgG1; also called xi94C4C3 hlgG1; 94C4C3 (chimeric)) VH: DVQLQESGPGLVKPSQSLSLTCTVTGYSITSDYAWNWIRQFPGNKLEWMGYISYSGSISYNPSLKSRISITRDTSKNQFFLQLNSVTTEDTATYYCARSRYSWFDYWGQGTLVTVSA VL: DIVLTQSPTSLAVSLGQRATLSCSASESVDTYGNSFMHWYQQKPGQPPKLLIYRASSLESGIPVRFSGSGSRTDFTLTINPVEAADVATYYCQQSNEDPYTFGGGTKLEIK |
| 0.34 | 14100 | 0.52 | 8330 | 1.04 | 127000 | – | – | – | – | – | – | – | – | – | – | – | – | – | – | xi114A2B5 hIgG1 (antibody, V domains shown, Murine variable domains in human chimeric format, human IgG1; also called 114A2B5 (chimeric)) VH: DVQLQESGPGLVKPSQSLSLTCTVTGYSITSDYAWNWIRQFPGNKLEWMGYISYSGSTSYNPSLKSRISITRDTSKNQFFLQLNSVTTEDTATYYCARSRYSWFDYWGQGTLVTVSA VL: DIVLTQSPASLAVSLGQRATLSCRASESVDTYGNSFMHWYQQKPGQSPKLLIYRASSLESGIPARFSGSGSRTDFTLTINPVEAADVATYYCQQSNEDPYTFGGGTKLEIK |
| 0.19 | 13300 | 0.47 | 8190 | 1.37 | 124000 | 0.756 | 18700 | – | – | 1.05 | 74400 | 1.05 | 74400 | – | – | – | – | – | – | xi108F3D1E9 hIgG1 (antibody, V domains shown, Murine variable domains in human chimeric format, human IgG1; also called xi108F3D1E9 hlgG1; 108F3D1E9 (chimeric)) VH: DVQLQESGPGLVKPSQSLSLTCTVTGYSITSDFAWNWIRQFPGNKLEWMGYINFSGSTSYNPSLKSRISITRDTSKNQFFLQLNSVTTEDTATYYCAGSRYSWFAYWGQGTLVTVSA VL: DIVLTQSPASLAVSLGQRATISCRASESVDTYGNSFMHWYQQKPGQPPKLLIYRASNLESGIPARFSGSGSRTDFTLTINPVEADDVATYYCQQSNEDPYTFGGGTKLEIK |

Further lines, the binder ahead of its results:

| Binder | ADCC reporter bioassay, EC50 [1] [nM] | ADCC reporter bioassay, Top (MFI) [1] [MFI] | EC50 [2] [nM] | Top (MFI) [2] [MFI] | EC50 [3] [nM] | Top (MFI) [3] [MFI] | EC50 [4] [nM] | Top (MFI) [4] [MFI] | EC50 [5] [nM] | Top (MFI) [5] [MFI] | EC50 [6] [nM] | Top (MFI) [6] [MFI] | EC50 [7] [nM] | Top (MFI) [7] [MFI] | EC50 [8] [nM] | Top (MFI) [8] [MFI] | EC50 [9] [nM] | Top (MFI) [9] [MFI] | EC50 [10] [nM] | Top (MFI) [10] [MFI] |
| --- | --- | --- | --- | --- | --- | --- | --- | --- | --- | --- | --- | --- | --- | --- | --- | --- | --- | --- | --- | --- |
| xi103C5G10F9 hIgG1 (antibody, V domains shown, Murine variable domains in human chimeric format, human IgG1; also called 103C5G10F9 (chimeric)) VH: DVQLQESGPGLVKPSQSLSLTCTVTGYSITSDYAWNWIRQFPGNKLEWMGYISYSGSTSYNPSLKSRISITRDTSKNQFFLQLNSVTTEDTATYYCARSRYSWFDYWGQGTLVTVSA VL: DIVLTQSPTSLAVSLGQRATLSCSASESVDTYGNSFMHWYQQKPGQSPKLLIYRASSLESGIPARFSGSGSRTDFTLTINPVEAADVATYYCQQSNEDPYTFGGGTKLEIK | 0.39 | 13900 | 0.43 | 8580 | 1.08 | 124000 | – | – | – | – | – | – | – | – | – | – | – | – | – | – |
| xi31D9B3 hIgG1 (antibody, V domains shown, Murine variable domains in human chimeric format, human IgG1; also called xi31D9B3 hlgG1; 31D9B3 hlgG1) VH: QVKLLQSGAALVKPGASVKMSCKASGYTFTDYWVSWVKQSHGKSLEWIGEIYPKNGVSNFNEKFKGKATLTVDKSTSTAYMELRRLTSEDSAIFYCTRQRDYWGQGVMVTVSS VL: DVVLTQTPGSLSVTLGDQASISCRSSQSLEYGDGYTYLEWYLQKPGQSPQLLIYGVSNRFSGVPDRFIGSGSGTDFTLKISRVEPEDLGVYYCFQATHDPNTFGAGTKLELK | 0.27 | 14400 | 0.57 | 8360 | 1.16 | 122000 | 0.657 | 18600 | – | – | 0.881 | 26200 | – | – | 0.88 | 35200 | 0.88 | 35200 | 0.881 | 26200 |
| xi35D4G3 hIgG1 (antibody, V domains shown, Murine variable domains in human chimeric format, human IgG1; also called 35D4G3 (chimeric)) VH: QVRLLQSGAALVKPGASAKMSCKASGYTFTDYWVSWVKQSHGKSLEWIGEIYPDNGITNFNEKFKGKATLTVDKSTRTAYMELSRLTSEDSAIYYCTRQRDYWGQGVMVTVSS VL: DVVLTQTPGSLSVTLGDQVSISCRSSQSLKYGDGYTYLEWYLQKPGQSPQLLFYGVSNRFSGVPDRFIGSGSGTDFTLKISRVEPEDLGVYYCFQATHDPNTFGTGTKLDLK | 0.25 | 14500 | 0.49 | 8290 | 0.11 | 114000 | – | – | – | – | – | – | – | – | – | – | – | – | – | – |
